Biological target: phosphoubiquitin (UniProt P0CG48 1-76, phosphorylated by PINK1 (Ser65))
Test: ITC

binding result: binds
B1: ΔUBL-Parkin (80-465) (domain or fragment)
chain: MNATGGDDPRNAAGGCEREPQSLTRVDLSSSVLPGDSVGLAVILHTDSRKDSPPAGSPAGRSIYNSFYVYCKGPCQRVQPGKLRVQCSTCRQATLTLTQGPSCWDDVLIPNRMSGECQSPHCPGTSAEFFFKCGAHPTSDKETSVALHLIATNSRNITCITCTDVRSPVLVFQCNSRHVICLDCFHLYCVTRLNDRQFVHDPQLGYSLPCVAGCPNSLIKELHHFRILGEEQYNRYQQYGAEECVLQMGGVLCPRPGCGAGLLPEPDQRKVTCEGGNGLGCGFAFCRECKEAYHEGECSAVFEASGTTTQAYRVDERAAEQARWEAASKETIKKTTKPCPRCHVPVEKNGGCMHMKCPQPQCRLEWCWNCGCEWNRVCMGDHWFDV
